Assays:
[1] = molecular target: T1, endogenous PDK1 associated with GST-PIF (Homo sapiens, UniProt O15530); assay: Dissociation of endogenous PDK1 from purified GST-PIF by peptide; type: binding; settings: peptide 100 μM, GST-PIF purified from 293 cells
T1 construct: endogenous in cells; host or cells: 293 cells transfected with pEBG2T GST-PIF; endogenous PDK1 co-purified on glutathione-Sepharose
Source text: In contrast, a mutant peptide in which the residue corresponding to Asp978 was changed to Ala (termed “D978A-Region B peptide”) interacted with PDK1>fold 10-less strongly (FIG. 13).

[2] = molecular target: T2, His-PDK1 (Homo sapiens, UniProt O15530); assay: Conversion of His-PDK1 into a Ser473 PKBα kinase by synthetic peptide (P-Ser473 immunoblot); type: biochemical; settings: peptide at 20 µM, 3-phosphoinositide vesicles, MgATP
T2 construct: made in house; host or cells: Sf21 insect cells (baculovirus, pFASTBAC HTb)
T2 sequence (O15530 1-556): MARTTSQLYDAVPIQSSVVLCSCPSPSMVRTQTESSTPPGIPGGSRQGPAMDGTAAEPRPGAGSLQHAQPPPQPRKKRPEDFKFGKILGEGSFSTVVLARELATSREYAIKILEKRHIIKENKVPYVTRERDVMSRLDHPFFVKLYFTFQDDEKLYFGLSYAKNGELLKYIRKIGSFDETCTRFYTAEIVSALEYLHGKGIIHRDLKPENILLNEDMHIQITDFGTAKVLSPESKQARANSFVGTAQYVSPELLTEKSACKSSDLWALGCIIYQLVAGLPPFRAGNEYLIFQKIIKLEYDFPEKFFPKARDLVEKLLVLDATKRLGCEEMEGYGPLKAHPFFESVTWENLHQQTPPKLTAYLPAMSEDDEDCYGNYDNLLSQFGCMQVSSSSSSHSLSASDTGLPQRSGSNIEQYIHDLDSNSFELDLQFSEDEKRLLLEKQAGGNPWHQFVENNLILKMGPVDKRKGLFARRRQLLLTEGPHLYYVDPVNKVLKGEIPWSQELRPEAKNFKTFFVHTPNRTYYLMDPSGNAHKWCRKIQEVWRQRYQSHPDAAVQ
Protocol: FIG. 6. Conversion of PDK1 into an enzyme that can phosphorylate both Thr308 and Ser473 of PKB by addition of a synthetic peptide. […] After allowing to stand for 1 h at 4° C. GST-PKBα, MgATP and the indicated phospholipid vesicles containing 100 μM PtdCho, 100 μM PtdSer, and either 10 μM sn-1-stearoyl-2-arachidonoyl-D-PtdIns(3,4,5)P3 (1,2-SAD-PtdIns(3,4,5)P3), or sn-1,2 di-palmitoyl-D-PtdIns(3,4,5)P3 (C16-PtdIns(3,4,5)P3) or sn-1,2 di-palmitoyl-D-PtdIns(3,4)P2 (C16-PtdIns(3,4)P2) were added. After 1 h at 30° C., the reactions were terminated by making the solutions 1% in SDS, the samples were subjected to SDS/polyacylamide gel electrophoresis and immunoblotted using P-Ser473 antibody. Identical results were obtained in 2 separate experiments. […]
Phosphorylation of GST-PKBα by incubation with GST-PIF. In experiments in which the phosphorylation of PKBα was determined using the phospho-specific Ser473 PKBα antibodies, the incubations were identical to the Stage 1 described above except that the reactions were terminated by the addition of 1% (by mass) SDS and immunoblotting is carried out as described below. In experiments in which the sites of phosphorylation on PKBα are determined the incubations were identical to the Stage 1 described above except [γ^32P] […]

T1 sequence (Q16513 908-984 partner limits assumed, one chain of several): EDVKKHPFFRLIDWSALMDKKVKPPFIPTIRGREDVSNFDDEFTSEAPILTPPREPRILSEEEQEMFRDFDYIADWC

Substance: D978A-Region B peptide: mutant peptide in which the residue corresponding to Asp978 was changed to Ala (REPRILSEEEQEMFRDFAYIADWC)
- dissociation of the endogenous PDK1 from GST-PIF [1]: incapable of inducing the dissociation
- inducing His-PDK1 to phosphorylate PKBα at Ser473 [2]: far less effective

Source: patent US20070196883A1, “ENZYME” (UNIVERSITY OF DUNDEE, priority 1999, published 2007)
